Test results from article doi:10.1101/2023.07.10.548257 (bioRxiv, 2024).
Where a chain is given by its changes, count along the chain named. No end group written: not given here.

Key:
full-length SHP2^T42A = target: T1, full-length SHP2^T42A (Homo sapiens, UniProt Q06124, T42A); experiment: SHP2 activation assay using phosphopeptides (DiFMUP), SHP2 T42A; format: biochemical; conditions: activation of full-length SHP2 T42A (0.05 nM) by phosphopeptide; DiFMUP substrate; HEPES pH 7.2 assay buffer; mean of N (column N)
T1 construct: Full-length SHP2 constructs were diluted in assay buffer; His6-TEV (N, cleaved yes); made in house; host or cells: E. coli BL21(DE3)
T1 sequence (Q06124 1-593 T42A): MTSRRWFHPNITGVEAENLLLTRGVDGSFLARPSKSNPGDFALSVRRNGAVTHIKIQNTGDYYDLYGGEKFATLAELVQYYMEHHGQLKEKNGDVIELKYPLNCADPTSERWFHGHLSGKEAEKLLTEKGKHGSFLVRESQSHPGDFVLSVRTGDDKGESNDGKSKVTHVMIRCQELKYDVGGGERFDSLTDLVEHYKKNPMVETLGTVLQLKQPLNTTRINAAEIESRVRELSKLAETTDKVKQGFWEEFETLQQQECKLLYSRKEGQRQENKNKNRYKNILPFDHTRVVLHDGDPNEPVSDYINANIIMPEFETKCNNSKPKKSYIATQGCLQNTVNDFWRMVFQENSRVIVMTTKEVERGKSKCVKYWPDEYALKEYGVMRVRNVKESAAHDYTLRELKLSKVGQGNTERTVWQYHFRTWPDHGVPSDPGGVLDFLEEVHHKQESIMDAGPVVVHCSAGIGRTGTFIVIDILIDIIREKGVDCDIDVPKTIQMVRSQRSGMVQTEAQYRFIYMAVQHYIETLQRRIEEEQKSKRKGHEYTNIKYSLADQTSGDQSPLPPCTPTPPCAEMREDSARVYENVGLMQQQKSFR

full-length SHP2^WT = target: T2, full-length SHP2^WT (Homo sapiens, UniProt Q06124); experiment: SHP2 activation assay using phosphopeptides (DiFMUP), SHP2 WT; format: biochemical; conditions: activation of full-length SHP2 WT (0.05 nM) by phosphopeptide; DiFMUP substrate; 60 mM HEPES pH 7.2, 75 mM KCl, 75 mM NaCl, 1 mM EDTA, 0.05% Tween-20, 0.5 mM TCEP; fluorescence read every 25 s for 6 min; mean of N (column N)
T2 construct: Full-length SHP2 constructs were diluted in assay buffer; His6-TEV (N, cleaved yes); made in house; host or cells: E. coli BL21(DE3)
T2 sequence (Q06124 1-593): T1 sequence (Q06124 1-593 T42A) with A42T
Method: SHP2 activation assays using phosphopeptides
Full-length SHP2 constructs were diluted in assay buffer (60 mM HEPES pH 7.2, 75 mM KCl, 75 mM NaCl,1 mM EDTA, 0.05% Tween-20, with 0.5 mM TCEP freshly added) to a 2X concentration of 0.1 nM. Peptides were serially diluted in assay buffer, with the last point of the concentration series fully without peptide. 15 μL of peptide and 15 μL of 800 μM DiFMUP was added to a black 96-well half area plate. Right before starting the plate reader assay, 30 μL SHP2 was added to each well a Supplementary Information - page 4 of 18 […]
final concentration of 0.05nM. Kinetic measurements (Ex 358/Em […]) were taken on a BioTek Neo2 plate reader every 25 seconds for 6 minutes. […]
(§1) OD600 reached 0.5. 20 mL of cell suspension was induced at 25 °C using a final concentration of 0.4% arabinose until the OD600 ~ 1 (after approximately 4 hours). The cells were spun down at 4000 rpm for 15 minutes, and the pellet was resuspended in PBS so that the OD600 ~1.5. The cells were stored in the fridge and used within a week.
(§2) For each sample, 75 μL of Dynabeads™ FlowComp™ Flexi Kit were washed twice in 1 mL SH2 buffer (50 mM HEPES pH 7.5, 150 mM NaCl, 1 mM TCEP, and 0.2% BSA) on a magnetic rack.
(§3) The beads were then resuspended in 75 μL of SH2 buffer. SH2 domains were thawed quickly and 20 μM of protein was added to the beads. SH2 buffer was added up to 150 μL, and the suspension was incubated for 1 hour at 4 °C while rotating. After 1 hour, the suspension was placed on a magnetic rack and washed twice with 1 mL SH2 buffer.
(§4) Preparing the phosphorylated cells
(§5) 150 μL of prepared cells per sample were spun down for 4000 rpm for 5 minutes at 4 °C.
(§6) Kinase screen buffer was prepared (50 mM Tris, 10 mM magnesium chloride, 150 mM sodium chloride; add 2 mM sodium orthovanadate and 1 mM TCEP fresh) and the cells of each sample were resuspended in 100 μL kinase screen buffer. Kinases c-Src, c-Abl, AncSZ, Eph1B were added to a final concentration of 2.5 µM each, creatine phosphate was added to a final concentration of 5 mM, and phosphokinase was added to a final concentration of 50 µg/mL. The suspension was incubated at 37 °C for 5 minutes before ATP was added to a final concentration of 1 mM. This mixture was incubated at 37 °C for 3 hours. After 3 hours, EDTA was added to a final concentration of 25 mM to quench the reaction. The input library control sample was not phosphorylated. These cells were spun down at 4000 rpm for 15 minutes at 4 °C. The cells were then resuspended in 100 µL of SH2 buffer + 0.1% BSA. Phosphorylation of the cells was confirmed by labeling with the PY20-PerCP-eFluor 710 pan-phosphotyrosine antibody followed by analysis via flow cytometry.
(§7) Enriching for cells displaying high-affinity phosphopeptide ligands
(§8) 100 μL of phosphorylated cells were mixed with 75 µL SH2-beads for 1 hour at 4 °C while rotating. After 1 hour, samples were placed on a magnetic rack, supernatant was removed and 1 mL SH2 buffer was added to each sample. This was rotated for 30 minutes at 4 °C to wash the beads.
(§9) After this wash, the beads were placed on a magnetic rack, the supernatant was removed and 50 µL […]
(§10) Preparing sequencing samples & deep sequencing
All SH2-selected samples and the input library control were resuspended in 50 µL MilliQ water, vortexed, and boiled for 10 minutes at 100 °C. The boiled lysate was used as the DNA template in a PCR reaction using the TruSeq-eCPX-Fwd and TruSeq-eCPX-Rev primers. The mixture resulting from this PCR was used directly into a second PCR to append Illumina sequencing adaptors and Supplementary Information - page 5 of 18

SHP2 N-SH2^WT domain = target: T3, SHP2 N-SH2^WT domain (Homo sapiens, UniProt Q06124); experiment: SH2 specificity profiling by bacterial peptide display (Human pTyr and pTyr-Var Libraries), N-SH2 WT; format: binding; conditions: for >3.2 --> N-WT-Ave: average enrichment score above cutoff of 3.2 (true binder); for N-WT-Ave (enrichment score): bacterial peptide display, enzymatically phosphorylated displayed peptides, SH2-coated beads, deep sequencing, frequency in enriched sample / input, average, Human pTyr Library N = 3, pTyr-Var Library N = 2
T3 construct: SHP2 SH2 domains were cloned into a His6-SUMO-SH2-Avi construct; His6-SUMO (N, cleaved yes); made in house; host or cells: E. coli C43(DE3), co-expressed with BirA
T3 sequence (Q06124 6-102 limits assumed): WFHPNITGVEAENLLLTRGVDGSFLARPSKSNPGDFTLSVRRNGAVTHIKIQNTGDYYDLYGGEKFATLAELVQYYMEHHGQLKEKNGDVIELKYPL
Method: (§11) Next, we characterized the sequence specificity of the SH2 mutants relative to their wild-type counterparts in a large-scale, unbiased screen. […] For each peptide in a library, an enrichment score is calculated from the deep sequencing data as the frequency of the peptide in the SH2-enriched sample divided by the frequency of the peptide in the unenriched input sample ([34]). For this study, we used two largely non-overlapping libraries, both encoding known human phosphosites. […] The Human pTyr Library consists of 1,916 sequences derived from known phosphorylation sites in the human proteome, along with another 617 control mutants ([35]). […]
(§12) SH2 specificity profiling using bacterial peptide display
(§13) Preparation of bacterial cells
as §1, with “Electrocompetent MC1061 cells were transformed with ~100 ng of the respective library. After 1 hour recovery in 1 mL LB, cells were further diluted into 250 mL LB + 0.1% chloramphenicol. 1.8 mL of overnight culture was used to inoculate 100 mL LB + 0.1% chloramphenicol, and grown until OD600 reached” for “OD600 reached”
as §2, §3, §4, §5, §6, §7, §8, §9, §10
(§14) All SH2-selected samples and the input library control were resuspended in 50 µL MilliQ water, vortexed, and boiled for 10 minutes at 100 °C. The boiled lysate was used as the DNA template in a PCR reaction using the TruSeq-eCPX-Fwd and TruSeq-eCPX-Rev primers. The mixture resulting from this PCR was used directly into a second PCR to append Illumina sequencing adaptors and Supplementary Information - page 5 of 18 […]
(§15) unique 5’ and 3’ indices to each sample (D700 and D500 series primers). The resulting PCR mixtures […]

SHP2 C-SH2^WT domain = target: T4, SHP2 C-SH2^WT domain (Homo sapiens, UniProt Q06124); experiment: SH2 specificity profiling by bacterial peptide display (Human pTyr and pTyr-Var Libraries), C-SH2 WT; format: binding; conditions: for >3.2 --> C-WT-Ave: average enrichment score above cutoff of 3.2 (true binder); for C-WT-Ave (enrichment score): bacterial peptide display, frequency in enriched sample / input, average, Human pTyr Library N = 3, pTyr-Var Library N = 2
T4 construct: SHP2 SH2 domains were cloned into a His6-SUMO-SH2-Avi construct; His6-SUMO (N, cleaved yes); made in house; host or cells: E. coli C43(DE3), co-expressed with BirA
T4 sequence (Q06124 112-216 limits assumed): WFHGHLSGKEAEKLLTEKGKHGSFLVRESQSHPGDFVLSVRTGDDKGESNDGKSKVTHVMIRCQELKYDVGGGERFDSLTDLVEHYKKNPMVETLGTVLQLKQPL
Method: as §11, §12, §13
as §1, with “Electrocompetent MC1061 cells were transformed with ~100 ng of the respective library. After 1 hour recovery in 1 mL LB, cells were further diluted into 250 mL LB + 0.1% chloramphenicol. 1.8 mL of overnight culture was used to inoculate 100 mL LB + 0.1% chloramphenicol, and grown until OD600 reached” for “OD600 reached”
as §2, §3, §4, §5, §6, §7, §8, §9, §10, §14, §15

SHP2 C-SH2^E139D domain = target: T5, SHP2 C-SH2^E139D domain (Homo sapiens, UniProt Q06124, E139D); experiment: SH2 specificity profiling by bacterial peptide display (Human pTyr and pTyr-Var Libraries), C-SH2 E139D; format: binding; conditions: for >3.2 --> C-E139D-Ave: average enrichment score above cutoff of 3.2 (true binder); for C-E139D-Ave (enrichment score): bacterial peptide display, frequency in enriched sample / input, average, Human pTyr Library N = 3, pTyr-Var Library N = 2
T5 construct: SHP2 SH2 domains were cloned into a His6-SUMO-SH2-Avi construct; His6-SUMO (N, cleaved yes); made in house; host or cells: E. coli C43(DE3), co-expressed with BirA
T5 sequence (Q06124 112-216 E139D limits assumed): T4 sequence (Q06124 112-216 limits assumed) with E28D
Method: as §11, §12, §13
as §1, with “Electrocompetent MC1061 cells were transformed with ~100 ng of the respective library. After 1 hour recovery in 1 mL LB, cells were further diluted into 250 mL LB + 0.1% chloramphenicol. 1.8 mL of overnight culture was used to inoculate 100 mL LB + 0.1% chloramphenicol, and grown until OD600 reached” for “OD600 reached”
as §2, §3, §4, §5, §6, §7, §8, §9, §10, §14, §15

Row | Compound | EC50 (full-length SHP2^T42A) | EC50 (full-length SHP2^WT) | >3.2 --> N-WT-Ave (SHP2 N-SH2^WT domain) | N-WT-Ave (enrichment score) (SHP2 N-SH2^WT domain) | >3.2 --> C-WT-Ave (SHP2 C-SH2^WT domain) | C-WT-Ave (enrichment score) (SHP2 C-SH2^WT domain) | >3.2 --> C-E139D-Ave (SHP2 C-SH2^E139D domain) | C-E139D-Ave (enrichment score) (SHP2 C-SH2^E139D domain)
1 | CC[C@H](C)[C@H](NC(=O)[C@@H](NC(=O)[C@H](C)NC(=O)[C@H](Cc1ccc(OP(=O)(O)O)cc1)NC(=O)[C@@H](NC(=O)[C@@H]1CCCN1C(=O)[C@H](CCC(=O)O)NC(=O)[C@@H]1CCCN1C(=O)[C@H](CO)NC(=O)[C@H](C)NC(C)=O)[C@@H](C)CC)[C@@H](C)O)C(=O)N[C@@H](CC(=O)O)C(=O)N[C@@H](Cc1ccccc1)C(=O)N[C@@H](CC(=O)O)C(N)=O | 1460 nM | 2820 nM |  |  |  |  |  | 
2 | CC(=O)NCC(=O)N[C@@H](CC(=O)O)C(=O)N[C@@H](CCCCN)C(=O)N[C@@H](CCC(N)=O)C(=O)N[C@H](C(=O)N[C@@H](CCC(=O)O)C(=O)N[C@@H](Cc1ccc(OP(=O)(O)O)cc1)C(=O)N[C@@H](CC(C)C)C(=O)N[C@@H](CC(=O)O)C(=O)N[C@@H](CC(C)C)C(=O)N[C@@H](CC(=O)O)C(=O)N[C@@H](CC(C)C)C(=O)N[C@@H](CC(=O)O)C(N)=O)C(C)C |  | 26200 nM |  |  |  |  |  | 
3 | MKGDAARYLAEVATG (bacterially displayed) [1433G_HUMAN_133_YA] |  |  | FALSE (>3.2 -->) | 0.9356 | FALSE (>3.2 -->) | 0.8982 |  | 
4 | MKGDAHRYLAEFATG (bacterially displayed) [1433E_HUMAN_131_YA] |  |  | FALSE (>3.2 -->) | 0.7788 | FALSE (>3.2 -->) | 0.6613 | FALSE (>3.2 -->) | 0.7738
5 | MKGDYHRYLAEFATG (also: phosphorylated, site not given here) [1433E_HUMAN_131] |  |  | FALSE (>3.2 -->) | 0.8269 | FALSE (>3.2 -->) | 0.8786 | FALSE (>3.2 -->) | 0.911
6 | MKGDYYRYLAEVATG (also: phosphorylated, site not given here) [1433G_HUMAN_133] |  |  | FALSE (>3.2 -->) | 0.8572 | FALSE (>3.2 -->) | 0.777 | FALSE (>3.2 -->) | 0.8393
